Results published in publication PMC12311110.

Legend:
endogenous VPS26 = endogenous VPS26 (UniProt O75436); assay: GFP-based co-IP, western blot band quantification; conditions: HEK293T cells, transient transfection; normalised to GFP band intensity; n = 3; parent: est. 100; read off a plot
[1] = target: hRetromer (recombinant Retromer trimer) (human) (UniProt Q96QK1); assay: ITC; Microcal PEAQ-ITC, 25 °C; 1 mM peptide or 530 µM TBC1D13 titrated into 14 µM Retromer; single-site model; mean of triplicate titrations

Sequence of recombinant full-length human TBC1D13 (Q9NVG8 whole entry): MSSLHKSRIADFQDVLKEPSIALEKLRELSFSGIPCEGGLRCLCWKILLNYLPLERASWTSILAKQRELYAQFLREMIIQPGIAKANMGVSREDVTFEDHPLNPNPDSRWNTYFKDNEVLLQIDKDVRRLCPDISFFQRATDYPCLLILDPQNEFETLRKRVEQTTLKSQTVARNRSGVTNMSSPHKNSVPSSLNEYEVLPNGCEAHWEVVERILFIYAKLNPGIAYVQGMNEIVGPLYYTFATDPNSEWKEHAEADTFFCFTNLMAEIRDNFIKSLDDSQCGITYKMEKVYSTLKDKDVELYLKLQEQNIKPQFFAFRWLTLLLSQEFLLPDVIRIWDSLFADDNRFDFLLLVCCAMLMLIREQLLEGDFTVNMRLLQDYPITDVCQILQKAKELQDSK

Substance | percent of parent (relative intensity (WT = 100)) (endogenous VPS26) | Kd [1] [µM] | dH [1] [kcal/mol]
GFP-VPS29 wild-type (from UniProt Q9UBQ0) L152E | 110 | – | –
GFP-VPS29 wild-type (from UniProt Q9UBQ0) V174D | 170 | – | –
VPS35-GFP WT (from UniProt Q96QK1) I218D | 120 | – | –
human DENND4C peptide 1189-1206 | – | 15.4 | -10.1
recombinant full-length human TBC1D13 (from UniProt Q9NVG8 1-400) (natural protein) | – | 6.3 | -8.1
